Laboratory results from patent publication US11395853B2, “Biomimetic drug delivery of an immunomodulatory agent for the treatment of ocular conditions” (University of Pittsburgh-Of the Commonwealth System of …, priority 2016, dated 2022).

Tests used:
[1] = tested on: ConA-induced DED mice; test: Corneal permeability, corneal fluorescein staining score, ConA-induced DED (Example 1); format: in vivo, Balb/c mice; settings: one week after ConA into lacrimal gland; MPs or soluble CCL22 co-injected with ConA; anti-GITR 500 μg i.p. 5 days prior
Description: (§1) Fabrication of Microparticles—Poly (lactic-co-glycolic) acid (PLGA) microparticles encapsulating recombinant mouse CCL22 (R&D Systems, Minneapolis Minn.) were made according to a previously reported water-oil-water double emulsion technique. Glowacki, A. J. et al. Proc. Natl. Acad. Sci. U.S.A 110, 18525-30 (2013). Briefly, 200 mg of RG502H poly(D,L-lactide-co-glycolide) polymer (Sigma Aldrich, St. Louis, Mo.) was dissolved in 4 ml of dichloromethane and vortexed. Then […], of an aqueous solution containing 5 μg of recombinant mouse CCL22 and 2 mg of BSA (Sigma Aldrich, St. Louis, Mo.) with […] NaCl was pipetted into the mixture of polymer and dichloromethane. […] Release media (supernatant) was sampled periodically and CCL22 concentrations were quantified using an enzyme-linked immunosorbent assay (ELISA) (R&D Systems, Minneapolis, Minn.). […] Measurement of Tear Production—Aqueous tear production was measured with phenol red cotton threads (Oasis Medical, San Dimas, Calif.). Thread was placed in the lateral canthus of the eye for a period of 60 seconds, and wetting was measured in millimeters using a dissecting microscope (Olympus SZX10, Waltham, Mass.). […] The surface of the cornea was evaluated using a dissecting microscope with a fluorescent excitation lamp (Olympus SZX10, Waltham, Mass.). […]

[2] = tested on: ConA-induced DED mice; test: Aqueous tear production, phenol red cotton thread, ConA-induced DED (Example 1); format: in vivo, Balb/c mice; settings: one week after ConA into lacrimal gland; MPs 0.5 mg/20 μl co-injected with ConA; soluble CCL22 2.5 μg in 20 μl; anti-GITR 500 μg i.p. 5 days prior
Description: as §1

B1: Soluble CCL22: recombinant mouse CCL22 chemokine injected in solution with ConA at 2.5 μg in 20 μl (protein, UniProt O88430 25-92, looked up)
C-C motif chemokine 22: GPYGANVEDSICCQDYIRHPLPSRLVKEFFWTSKSCRKPGVVLITVKNRDICADPRQVWVKKLLHKLS
[1]
  corneal fluorescein staining (corneal permeability): central punctate fluorescein staining was observed
[2]
  aqueous tear production: unable to prevent loss of tear production
